Test system: MS2 coat protein
Experiment: apparent KD of MS2 coat protein; designed switch direction (-1 OFF switch, 1 ON switch): -1; higher = weaker reporter binding
In short: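 Designed RNA switches sharing common flanks were transcribed on Illumina chips by stalled E. coli RNA polymerase. They were titrated with SNAP-549-labelled MS2 coat protein, from 0.7 or 1.5 nM doubling to 3 µM, in Tris-HCl pH 7.5 buffer with KCl, MgCl2, BSA, DTT, tRNA and Tween-20. Titrations ran without input, with 200 uM small-molecule ligand, or with an oligonucleotide input. The apparent KD of each design is the median over its clusters, after curve-fitting of normalised cluster fluorescence.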

[1] = Eterna round: R95, input ligand: FMN 200 uM
[2] = Eterna round: R95, input ligand: microRNA oligo, concentration not stated
[3] = Eterna round: R95, input ligand: none
[4] = input ligand: microRNA oligo, concentration not stated

Sequence	apparent KD of MS2 coat protein [1] [nM]	apparent KD of MS2 coat protein [2] [nM]	apparent KD of MS2 coat protein [3] [nM]	apparent KD of MS2 coat protein (input ligand: FMN 200 uM) [nM]	apparent KD of MS2 coat protein [4] [nM]	apparent KD of MS2 coat protein (input ligand: none) [nM]
CAUUCGCAAGGAUAUUAUUGCAGUGACAUGAGGAUCACCCAUGUGUUCGUCAUGCAUCGAUGAGAAGGUGCAAGAC [Orater] (puzzle: Exclusion 5)	29.9	36.4	41.2	–	–	–
AGUACUAACACGGCAGUGUUAGUACAAUAAGCUUGUGAAACAUGAGGAUCACCCAUGUCCUCAUAAGCUCGUCUUAU [salish99_TOv2_r3_065] (puzzle: Sensor v3, turn-off variant 2)	18.6	423	15.4	–	–	–
GCGCCAUCGUGAGAUGGCGUACCGACAUGAGGAUCACCCAUGUAGGAUAUCGAUUGCUUUGCAGUCGAGAAGGGCGUGAUAAGU [JL ENG3 3.74] (Eterna round: R96, puzzle: Exclusion NG 3)	–	–	–	27.8	24.7	29.5
UCACGGGAUUGAGGAUAUAUAUUAAUUUUUACAAUAGAAGGCAAAUUUUUAGUUUUUUCACUUUACAUGAGGAUCACCCAUGUU [JR_ExcBG1_Sub081] (Eterna round: R96, puzzle: Exclusion NG 1)	–	–	–	–	20.5	–
CAUACUCAAGUCAGGAUAUAGACUCGGAUACGGAUCUAGAAGGGACAUGAGGAUCACCCAUGUAGAGAGUAAAG [EX-4 Malc #26] (puzzle: Brourd's mod of Exclusion 4)	60.9	28.1	25	–	–	–
ACUUGUGUUGAGGAUAUGCGACGCAACGGUGGAGCAGAAGGCGGCACAUGAGGAUCACCCAUGUCAGUUCGCGA [eternacac ex6r4 sub33] (Eterna round: R97, puzzle: Exclusion 6)	–	–	–	86.3	–	14.6
AUUUAGAGAGGAUAUAUAUUUUAAAACAUGAGGAUCACCCAUGUAAUUUUAUGGGAGAAAAUAGAAGGCUCAUUUA [JMFs Solution 1] (puzzle: Exclusion 5)	114	205	197	–	–	–
CCAUGGGUGCGAGGAUAUAGCCCAUGGGAAGAGCUAGAAGGCGCAGACAUGAGGAUCACCCAUGUGUUCAUGAGGAGGUGGACA (Eterna round: R96, puzzle: Exclusion NG 1)	–	–	–	124	54.8	84.8
GAAAACGCUGAGGAUAUUUCUGAUCAAAGCAGCAAAGAAGGCAGCACAUGAGGAUCACCCAUGUGGUCUUCAAA [jl-ex6-4.03 ViennaUCT mod] (Eterna round: R97, puzzle: Exclusion 6)	–	–	–	907	–	32.1
ACCAAUGCAGGAUAUACAUGAGGAUCACCCAUGUAUAACCUACAUAGAUGAUCAUCAUGUAGAAGGGCAAUGGA [EX3 229: Super Stable 29] (Eterna round: R96, puzzle: Exclusion 3)	–	–	–	12.2	11.1	14.6
CCGGGCGCAGGAUAUACGUGGCCCAAAUAAAUAAUAACCACACAUGAGGAUCACCCAUGUAGAAGGGCGCCCGG [-26.59, -25.61 kcal, A 32%] (Eterna round: R97, puzzle: Exclusion 2)	–	–	–	116	–	49.9
GAAGGACGAGGAUAUGUAUGGGACAGCCGAGGAAAAUCUCAACAUGAGGAUCACCCAUGUAGAAGGCGUGCCCG [Eternabot (Original) Solution 44] (Eterna round: R97, puzzle: Exclusion 2)	–	–	–	16.4	–	14.1
UUUUAACAUGAGGAUCACCCAUGUGAGGAUAUCGAAAUUUAUAUUAAUAUUAAUUAUACGAGAAGGCACAUUUU [JMF 30] (puzzle: Exclusion 1)	–	84	–	–	–	–
GUCAGCUCGUGAGGAUAUGCACAUGAGGAUCACCCAUGUAAGAUCAAGCUGCUUCGGCAGCAAGUGCAGAAGGCACGAGCUGAC [ENG2/9-A1] (Eterna round: R96, puzzle: Exclusion NG 2)	–	–	–	137	138	303

From the supplement of paper PMC9170038
